From paper doi:10.1101/2025.09.04.674342, “Tandem association of CLOCK:BMAL1 complexes on DNA enables recruitment of CBP/p300 through multivalent interactions” (bioRxiv, 2025)

B1: BMAL1 TAD (residues 579–626) (domain or fragment)
chain: not shown
notes: numbers count on: isoform Q9WTL8-4; Used at natural abundance or uniformly 15N-labelled; also called 15N BMAL1 TAD; source: E. coli Rosetta (DE3), purified (Ni-NTA, TEV cleavage, Superdex 75); not shown: His6-NusA-XL (HNXL), N-terminal, cleaved
B2: trans-locked BMAL1 switch peptide P625A (FSDLPWAL) (peptide)
peptide: FSDLPWAL
notes: numbers count on: isoform Q9WTL8-4; All trans; also called P625A switch; trans-locked switch; source: synthetic peptide (solid phase, Fmoc chemistry; C18 HPLC)
B3: [5,6] TAMRA-labeled BMAL1 minimal TAD peptide (residues 594–626), WT (peptide)
peptide: not shown
modifications: 5,6-TAMRA on the N-terminus; free carboxyl C-terminus
notes: BMAL1 minimal TAD with helix and switch regions, residues 594–626; numbers count on: isoform Q9WTL8-4; also called [5,6]; TAMRA-BMAL1 TAD probe; native TAD probe; source: synthetic peptide (Bio-Synthesis, 95% purity)
B4: BMAL1 linker-switch peptide (residues 613–626) (peptide, UniProt Q9WTL8-4 613-626, looked up)
peptide: LGGPVDFSDLPWPL
notes: BMAL1, mouse, residues 613–626 (linker and switch of the TAD); numbers count on: isoform Q9WTL8-4; source: synthetic peptide (Pierce, 95% purity)
B5: CBP KIX domain (residues 586–672) (domain or fragment)
chain: not shown
notes: CBP KIX domain, mouse, UniProt P45481, residues 586–672; tagless; Plasmid was a gift from Peter Wright; Used at natural abundance or uniformly 15N-labelled; also called WT KIX; 15N CBP KIX; source: E. coli Rosetta (DE3), purified (Ni-NTA through native histidines, size exclusion)
B6: BMAL1 TAD L606A/L607A (residues 579–626) (domain or fragment)
chain: not shown
notes: numbers count on: isoform Q9WTL8-4; Used at natural abundance or 15N-labelled; also called L606A/L607A TAD mutant; 15N BMAL1 TAD L606A/L607A; source: E. coli Rosetta (DE3), purified (Ni-NTA, TEV cleavage, Superdex 75); not shown: His6-NusA-XL (HNXL), N-terminal, cleaved
B7: CBP TAZ2 domain (residues 1764–1855; C1776A, C1784A, C1827A, C1828A) (domain or fragment, mouse, UniProt P45481 1764-1855, looked up)
chain: SPQESRRLSIQRAIQSLVHAAQCRNANCSLPSCQKMKRVVQHTKGCKRKTNGGCPVCKQLIALAAYHAKHCQENKCPVPFCLNIKHKLRQQQ
notes: CBP TAZ2 domain, mouse, UniProt P45481, residues 1764–1855, with four cysteine to alanine mutations that increase solubility and stability; source: E. coli (BL21), purified (amylose sepharose, S-sepharose, Superdex 75)
B8: CLOCK:BMAL1 bHLH-PAS-AB heterodimer (complex)
chain 1: VEEDDKDKAKRVSRNKSEKKRRDQFNVLIKELGSMLPGNARKMDKSTVLQKSIDFLRKHKETTAQSDASEIRQDWKPTFLSNEEFTQLMLEALDGFFLAIMTDGSIIYVSESVTSLLEHLPSDLVDQSIFNFIPEGEHSEVYKILSTHLLESDSLTPEYLKSKNQLEFCCHMLRGTIDPKEPSTYEYVRFIGNFKSLTSVSTSTHNGFEGTIQRTHRPSYEDRVCFVATVRLATPQFIKEMCTVEEPNEEFTSRHSLEWKFLFLDHRAPPIIGYLPFEVLGTSGYDYYHVDDLENLAKCHEHLMQYGKGKSCYYRFLTKGQQWIWLQTHYYITYHQWNSRPEFIVCTHTVVSYAEVRAERRRELGIEESL
chain 2: not shown
notes: CLOCK bHLH PAS-AB, mouse, UniProtKB O08785, residues 26–395; BMAL1 bHLH PAS-AB, mouse, UniProtKB Q9WTL8-4, residues 62–441; numbers count on: isoform Q9WTL8-4; Purified on Ni-NTA and cleaved with His-TEV; also called CLOCK:BMAL1 protomer; source: insect cells (Spodoptera frugiperda or Hi5), purified (Ni-NTA, TEV cleavage, heparin, Superdex 200); copies: 1 + 1

Experiments:
[1] = biological target: B5; experiment: ITC; 220–230 μM CBP KIX WT or 3mut titrated into 20–25 μM BMAL1 TAD WT or L606A/L607A; 25°C; 10 mM MES pH 6.5, 50 mM NaCl; one-site model; settings: both partners purified
[2] = biological target: B7; experiment: NMR titration; 15N-1H HSQC of 100 μM 15N BMAL1 TAD WT or L606A/L607A with stepwise additions of CBP KIX (WT or 3mut), TAZ1 or TAZ2; 25°C; 10 mM MES pH 6.5, 50 mM NaCl, 10% D2O; KD from fits of concentration-dependent CSPs, apparent; settings: both partners purified
[3] = biological target: B5; experiment: NMR titration; 15N-1H HSQC of 100 μM 15N CBP KIX with stepwise additions of natural abundance BMAL1 TAD or truncated peptides; 25°C; 10 mM MES pH 6.5, 50 mM NaCl, 10% D2O; settings: both partners purified
[4] = biological target: B7; experiment: fluorescence polarisation; CBP KIX, TAZ1 or TAZ2 titrated onto [5,6] TAMRA-labeled BMAL1 minimal TAD probes (25 nM in the legend, 50 nM in the methods); 10 mM MES pH 6.5, 50 mM NaCl, 0.05% Tween-20; room temperature; one-site specific binding with Hill coefficient; apparent KDs; settings: both partners purified
[5] = biological target: B1; experiment: ITC; 220–230 μM CBP KIX WT or 3mut titrated into 20–25 μM BMAL1 TAD WT or L606A/L607A; 25°C; 10 mM MES pH 6.5, 50 mM NaCl; one-site model; settings: both partners purified
[6] = biological target: B3; experiment: fluorescence polarisation; CBP KIX, TAZ1 or TAZ2 titrated onto [5,6] TAMRA-labeled BMAL1 minimal TAD probes (25 nM in the legend, 50 nM in the methods); 10 mM MES pH 6.5, 50 mM NaCl, 0.05% Tween-20; room temperature; one-site specific binding with Hill coefficient; apparent KDs; settings: both partners purified
[7] = biological target: the molecule itself; experiment: cryo-EM structure; two CLOCK:BMAL1 bHLH-PAS-AB protomers on a nucleosome with tandem E-boxes 6 bp apart (SHL +3.9/+5.1); GraFix glutaraldehyde cross-linked; 4.1 Å overall, 8–12 Å in the PAS region

Binder: B1
- Kd [1]: ~2000 nM
- binding result [2]: binds

Binder: B2
- binding result [3]: binds

Binder: B3
- binding result [4]: binds

Binder: B4
- binding result [3]: binds

Binder: B5
- stoichiometry N [5]: 0.8 to 1.1

Binder: B6
- binding result [2]: binds

Binder: B7
- fold lower affinity than TAZ1 [6]: ~20 fold

Binder: B8
- binding result [7]: binds
